Reference: the DeepSol protein solubility set

Assay: soluble on expression in E. coli; label from the status in PepcDB or PDB records

Soluble on expression in E. coli, not soluble:
MGSDKIHHHHHHMETWRFIDSGDRDPAYNMALDEALLNWHSEGLIPPTIRFYGWNPPTLSIGYFQKVQKEINMEMVEKHQLGFVRRPTGGRGVLHDKELTYSVIVTEEHPDMPASVTEAYRIISQGILEGFRDLGLDAYFAVPKTEEEKNALKNPRSAVCFDAPSWYELVVEGRKVAGSAQTRQKGVILQHGSIVLDIDEDKLFDLFNYPSERVRERMQRNFKNKAVPINELRDVPLSMEEVKKAFKDGFEKGLSIKLEPYTLTDAEEAEVKQIAKERYETDEWNFRK, MGSDKIHHHHHHMFERSDETLIAQALKGKKSAWLTLVKRYEKNLYNYALRMVNNPADAMDLMQDIFIALFRNLSKFRGECPFKNWLFKIAHYRCLEYYRRKRPMQSLDDVPEQEDEESVCLEKNLQIQQQSSALLEAMQHLPVKQKLVVELKFFQQCTFEDISQQLGISTNTAKSQLYSALDKLKLHLVDDQIIKVGVEYV, MGSDKIHHHHHHMFHREDFSKALLKKALQPGMRVMDIGCGSGELTRLAADIVGKEGDVVGIDINEQLLWQARHDNGYANVSYQNADLAALSSFETKSFDAIIGRRVLMYQKDPKKVIESLTPLLKPNGFYVFQESDAMCLELAKPSFVNMNKIQSLIWQTVEKEGGHIHIGSQLEQLMLEAGLIVDHFVSENVIQTSQTGTDLSWLLNIMKERIQKYSDLQGLEDVNLQKELEENNDHFIRDCQFGIISHRVDE, MGSDKIHHHHHHMFKPNYHFFPITGWMNDPNGLIFWKGKYHMFYQYNPRKPEWGNICWGHAVSDDLVHWRHLPVALYPDDETHGVFSGSAVEKDGKMFLVYTYYRDPTHNKGEKETQCVAMSENGLDFVKYDGNPVISKPPEEGTHAFRDPKVNRSNGEWRMVLGSGKDEKIGRVLLYTSDDLFHWKYEGVIFEDETTKEIECPDLVRIGEKDILIYSITSTNSVLFSMGELKEGKLNVEKRGLLDHGTDFYAAQTFFGTDRVVVIGWLQSWLRTGLYPTKREGWNGVMSLPRELYVENNELKVKPVDELLALRKRKVFETAKSGTFLLDVKENSYEIVCEFSGEIELRMGNESEEVVITKSRDELIVDTTRSGVSGGEVRKSTVEDEATNRIRAFLDSCSVEFFFNDSIAFSFRIHPENVYNILSVKSNQVKLEVFELENIWL, MGSDKIHHHHHHMFKSTLNSIIRRPLKGFQLLRGADSSNTRPQSPRASARDVTEKQILRTPSAPTAIPLREIIYRVPSLFPRPLEDSVKDFRDFIKNEDAFQTELLKTLPFYPTPSESKTARLIRTVVDDEGNYINEFCIRPRKTSVPEADLKHLVFIHGYGAGLGFFIKNFEDIPLLDNEWCIHAIDLPGYGFSSRPKFPFEYPRDNIHSVQDWFHERIHTWFSKRNLLNRPEKNIVMAHSLGSYLMALYLQKYKESPSFKKLILCSPAGVSYRDFNNTASEVEKWKPPPWWYVKLWDRNISPFTLVRNFRQLGSKITSGWSYRRFKHILNGDPEQSKRFEALHRYAYAIFNKRGSGEYLLSFALKCGGEPRLSLEQQLFDGKKSDILKNSNCDWLWLYGDDDWMDVNGGLRVSRFLKEKLKQKSNVIIVPHSGHHLYLDNYKFFNNILTKEMQKI, MGSDKIHHHHHHMFNAQYFRTFITLVETGSFTHTARKLEMTQPGVSQHIRKLERYLDKSLLYRHGRRFTLTETGRRAYDYAVKLFAEHEQFRHSLDNDSPDTGECRVASPSSVGLMFYPFILGYQQMHPGLTVTYDFAFNAEIVDAVLAGRFDVGIVTDVTKHPDLDFEPWHQEPLCLLVPADFTGTTISELMALGFMNYSDGINNASSLLRRNFAGEFRSMSHFPQQGFSNEVSMVLDAVARGLGFTVVPRSVMETSPWQRQVKELPLAESVYETLYVVTKRGVEMPRRYQQLLGEFRLQRRNVLYGYAEAPPLEDEA, MGSDKIHHHHHHMFNGRPFPVDAFPKIIRNAIYEVEQHTQAPQGLIAASALGVISLACQNRIDVCRLNNLRGPVSLFLMTLAESGERKSTVDKLLMKPLYQLEEDLFEKYTHDLTAWRNDEAIFNIEKKALMSKLKSDIRRNKDHLATNERLKELLTTNPKAPVRFKFLFNDATPAAIKAHLCGHWRSVGIMSDEAGIIFNGYTLNELPFINKMWDGSIFTVERKNEPEKLIRDARITLSLMVQPNVFKGYIDRKGDMAKGIGFFARCLMCQPASTQGNRKISNPIFSNEHLPVFHQRLMEIVNESIIKINENNRICLRFSAEAERHWIEFYNQVESEMRMIGLLYDFKDYASKMAENMARLAALLHYFSGDGGDISVTAVKAAVEIVAWYIEEYIRLFSKKEEFSLDVSEADELYCWIKDYCTQKFSSCIKKNIILQFGPNKFRNRDKANELIRILISQNKIFISSWGKTKIINITHCVF, MGSDKIHHHHHHMFNSERLCIARERRGLTQRALAEAAGLTSKTISNYEKAGIFDAIASDSMERISAVLEYPIEFFLDRDVPSLTPEAVSFRAMTKLSAQKRDSALGAGKLAQELSAWIDGQFKLPKPNVPDSSFDGYSEPERAARTVREAWGIGELSISNIVHLLEANGIRVFSLAENCVEVDAFSFWMDEKPFVLLNTMKTPERSRFDAAHELGHLVLHKHSCNNGRQAEQDADRFASAFLMPERSILASVPRMPRLEQLILLKKNWKVSLAALVRRTFDVGLSTEWHYRQLSIELNRRGYRTGEPQGMPEREKSLILEKVFSALRTQGIKRTEILGQLRFPADEVSALTFNNRFFMEAITGDGPQSYIERKQPPQLSLVK, MGSDKIHHHHHHMFPAGEMFFIESIRNVRNQIKDEKLLEDIKAFIAQEAFHSREHKMLNNHLIHSNYPEVVEIEAQTKARLDKLRQLSAVEQVAATVVMEHYTATLARLLLTDSLIKAKTTQESRNLWEWHALEELEHKSVAFDVLNAIGGNSSKNRKVALARVAKLITPIIFKYWIKILKRKDINFTLKQLKDGIYLGFGGINRVGILSKAFVDMLDVRAENFDPLNMQTEQLEAEFREKLFGQAGFLRDYLS, MGSDKIHHHHHHMFRSMRTSHERVHFTAKARRASTMAAPQNKVIVTCAVTGGIHTPTMSPHLPITARDIEDESVAAAEAGAAIVHLHARKPENGQPSQDPALFLEFLPRIAARSDVVINLTTGGAPNMLVEERLQPALQLKPEVASLNMGSMNFGLYPMIARHKTFKYDWERPYLEGSEDRVFRNTFKEIRYILESCADNGTRFEIECYDTSHLYTAAHFIDRGILKPPFFIQSVFGLLGGIGTHPDDVMHMRRTAERLFGKDYYWSVLGAGRSQMPIASMAAAMGGNVRVGLEDSLWEDRGRLSRSNADQVRRVVGILKSLNLEVATPDEARDMLQLKGRDAVAF, MGSDKIHHHHHHMFSKKVKWEETMTYKSIRALERGIDVLQYLNTVKGAAPPEIAENVNLPRPTVHRILETLSELNLVYRSQLGDEYRLSSGVQRLAGNRSSVRLNWIDEIALPALLELTSEIIWPSDIAVCHKAAMIIQGTTHRISPMSCDVGMVGNRRSMLMSPLGRAYLSHCPDDELKSILCALNASSASEDKGARDRAFIKEIIETGRRDGVSACNERPHPRCASLAAPIRLNGKVLACMNVVWRANMLTIEDAMDQIRDPLLATRDRIEAQLHEQFARPALGSTSFPETYTLRTGTRDRLPHSLALA, MGSDKIHHHHHHMFTQATFDFLAALEANNERDWFKANQHTYEDKVRTPALALIEAAAPAIVALSPRLTAVAKKVGGSLMRPQRDTRFGHDKRPYKTNVGIQFRHFQGKDVHAPGLYLHIANDGCFVAAGIWHPESKALNAIRSCIDENPATYQKALKALTDSGFAMDGDSLSRPPRGYDKRHPLIDELKRKDFIAVKSLTNHEVLQPDFASRLVAEFEHCQQLMRYLCFALELDY, MGSDKIHHHHHHMFVDTTLRDGHQSLIATRMRTEDMLPALEAFDRMNFHSMEVWGGATFDVAVRFLNENPWERLKKIREGLKNTKIQMLLRGQNLVGYRHYADDVVELFIKKVAEYGLDIIRIFDALNDERNLQKSIEESKKHGLHVQVAISYTVSPVHTLDYYLDFARKLLDMGVDSICIKDMAGLLTPKRAYELVRALKEKFGVPVEVHSHCTTGFAPLAYQAAYEAGADFFDTAISPFSMGTSQPTFETMYYAFRGNGKEDFDREALKFLVDHFTKVRMKYIEYDVGMKYPDSRIIFSQIPGGMYSNLLKQLKEQRMEHLLDKVLEEVPRVQKDLGYPPLVTPTSQIVGVQAFLNVVYGRYERITNETRNYVKGLYGRPPAPIDPELMRKILGDEKPIDCRPADLLEPELDKTRKELGILVETDEDLLIAVILGEVGKKFLRKKYEEKIGVDFNYLESLSDFTDDMPVYPV
